Values quoted from earlier work as cited in PMC4599565.

Target: VWF (Homo sapiens) (UniProt P04275)

Kd: 20 nM
Substance: ADAMTS13 (from UniProt Q76LX8)
